Target: KIR2DL1 on human NK cell clones (human) (UniProt P43626)
Assay: cell-based or functional assay

Sequence of UniProt P43626 (P43626 22-348): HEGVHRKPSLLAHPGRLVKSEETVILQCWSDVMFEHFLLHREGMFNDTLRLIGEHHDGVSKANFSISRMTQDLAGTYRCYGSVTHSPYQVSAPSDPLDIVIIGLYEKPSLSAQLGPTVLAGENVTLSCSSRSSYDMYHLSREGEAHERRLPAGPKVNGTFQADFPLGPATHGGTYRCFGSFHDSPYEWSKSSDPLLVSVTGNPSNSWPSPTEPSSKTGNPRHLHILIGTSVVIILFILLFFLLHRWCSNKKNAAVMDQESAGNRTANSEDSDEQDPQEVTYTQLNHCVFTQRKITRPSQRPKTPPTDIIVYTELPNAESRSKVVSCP

lysis of autologous Cw4+ PHA blasts by NK cells with Campath: > 30%
Substance: EB6 monoclonal antibody (IgG1, anti KIR2DL1)
